Source: article PMC8461720 (Journal of Parkinson's Disease, 2021)
Read-outs that look alike come from different tables or passages of the source.

What was measured:
[1] = biological target: GFRα1-RET (Homo sapiens, UniProt P07949); assay: RET phosphorylation assay; format: cell-based; settings: GDNF 200 ng/ml, 15 min; vehicle 0.66±0.22
[2] = biological target: RET (Homo sapiens, UniProt P07949); assay: RET phosphorylation assay, GFP transfected MG87RET cells; format: cell-based; settings: GDNF in the absence of GFRα1
[3] = tested on: AKT; format: cell-based, murine; settings: GDNF 200 ng/ml; vehicle 0.91±0.20
[4] = tested on: ERK; format: cell-based, murine; settings: GDNF 200 ng/ml; vehicle 0.56±0.13
[5] = tested on: wild-type midbrain dopamine neurons (TH-ir cells); assay: Survival assay for primary dopamine neurons, wild-type; format: cell-based, mouse; settings: GDNF 10 ng/ml ([…]), 5 days in vitro; vehicle 226.3±6.6
[6] = tested on: RET knockout midbrain dopamine neurons (TH-ir cells); assay: Survival assay for primary dopamine neurons, RET knockout; format: cell-based, mouse; settings: GDNF 10 ng/ml (≃[…]), 5th day in vitro
[7] = tested on: midbrain dopamine neurons exposed to MPP+; assay: Survival of MPP+-challenged dopamine neurons; format: cell-based, mouse; settings: GDNF 10 ng/ml (≃[…]) with MPP+ 2 μM, 48 hours; vehicle 267.7±20.4
[8] = tested on: 6-OHDA lesioned rats; assay: Amphetamine-induced rotational assay, unilateral 6-OHDA lesion; format: in vivo, rat; settings: GDNF 3 μg/24 h intrastriatal 14 days; 12 weeks post lesion
[9] = tested on: 6-OHDA lesioned rats; assay: TH-ir neurite number in the striatum; format: in vivo, rat; settings: BT44 0.1 and 0.3 μg/24 h, GDNF 3 μg/24 h; newly developed algorithm
[10] = tested on: 6-OHDA lesioned rats; assay: TH-ir cell bodies in the SNpc, CNN algorithm; format: in vivo, rat; settings: GDNF 3 μg/24 h
[11] = tested on: 6-OHDA lesioned rats; assay: DAT-ir cell bodies in the SNpc; format: in vivo, rat; settings: GDNF 3 μg/24 h
[12] = tested on: dopamine neurons; settings: cited from earlier work
[13] = tested on: 6-OHDA lesioned rats; assay: Optical density of TH-ir fibers in the dorsal striatum; settings: GDNF 3 μg/24 h; 12 weeks post lesion
[14] = tested on: 6-OHDA lesioned rats; assay: Optical density of DAT-ir fibers in the dorsal striatum; settings: GDNF 3 μg/24 h
[15] = biological target: GFRα2-RET (Homo sapiens, UniProt P07949); assay: RET phosphorylation assay, GFRα2 transfected MG87RET cells; format: cell-based; settings: NRTN 200 ng/ml, 15 min; vehicle 0.86±0.15
[16] = tested on: AKT; format: cell-based, murine; settings: NRTN 200 ng/ml; vehicle 0.63±0.02
[17] = tested on: ERK; format: cell-based, murine; settings: NRTN 200 ng/ml; vehicle 0.18±0.04
[18] = biological target: TrkB (Homo sapiens, UniProt Q16620); assay: Luciferase reporter assay in MG87 cells expressing TrkB; format: cell-based; settings: BDNF 100 ng/ml, overnight
Sequence of TrkB (Q16620 32-822, species assumed): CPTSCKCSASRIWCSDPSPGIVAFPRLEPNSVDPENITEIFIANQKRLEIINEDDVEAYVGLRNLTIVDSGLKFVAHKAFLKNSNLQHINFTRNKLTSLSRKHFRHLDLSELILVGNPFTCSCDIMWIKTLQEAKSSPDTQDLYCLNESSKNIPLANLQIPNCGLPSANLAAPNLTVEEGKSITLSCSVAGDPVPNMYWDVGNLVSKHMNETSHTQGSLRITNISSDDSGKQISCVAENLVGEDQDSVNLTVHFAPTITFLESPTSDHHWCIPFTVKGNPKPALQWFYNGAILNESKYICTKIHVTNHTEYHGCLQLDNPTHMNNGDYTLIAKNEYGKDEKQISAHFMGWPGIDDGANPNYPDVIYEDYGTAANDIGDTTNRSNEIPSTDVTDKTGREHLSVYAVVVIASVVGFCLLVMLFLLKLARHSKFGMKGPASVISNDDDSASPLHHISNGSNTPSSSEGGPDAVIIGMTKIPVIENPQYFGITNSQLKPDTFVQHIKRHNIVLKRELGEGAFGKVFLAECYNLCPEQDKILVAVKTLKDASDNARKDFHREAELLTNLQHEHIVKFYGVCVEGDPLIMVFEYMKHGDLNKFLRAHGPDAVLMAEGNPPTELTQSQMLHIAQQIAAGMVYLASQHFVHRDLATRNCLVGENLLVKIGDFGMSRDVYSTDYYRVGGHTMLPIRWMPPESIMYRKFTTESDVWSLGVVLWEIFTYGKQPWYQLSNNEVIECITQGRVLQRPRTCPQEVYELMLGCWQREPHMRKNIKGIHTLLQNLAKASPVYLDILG

Sequence of GFRα1-RET (P07949 29-1114): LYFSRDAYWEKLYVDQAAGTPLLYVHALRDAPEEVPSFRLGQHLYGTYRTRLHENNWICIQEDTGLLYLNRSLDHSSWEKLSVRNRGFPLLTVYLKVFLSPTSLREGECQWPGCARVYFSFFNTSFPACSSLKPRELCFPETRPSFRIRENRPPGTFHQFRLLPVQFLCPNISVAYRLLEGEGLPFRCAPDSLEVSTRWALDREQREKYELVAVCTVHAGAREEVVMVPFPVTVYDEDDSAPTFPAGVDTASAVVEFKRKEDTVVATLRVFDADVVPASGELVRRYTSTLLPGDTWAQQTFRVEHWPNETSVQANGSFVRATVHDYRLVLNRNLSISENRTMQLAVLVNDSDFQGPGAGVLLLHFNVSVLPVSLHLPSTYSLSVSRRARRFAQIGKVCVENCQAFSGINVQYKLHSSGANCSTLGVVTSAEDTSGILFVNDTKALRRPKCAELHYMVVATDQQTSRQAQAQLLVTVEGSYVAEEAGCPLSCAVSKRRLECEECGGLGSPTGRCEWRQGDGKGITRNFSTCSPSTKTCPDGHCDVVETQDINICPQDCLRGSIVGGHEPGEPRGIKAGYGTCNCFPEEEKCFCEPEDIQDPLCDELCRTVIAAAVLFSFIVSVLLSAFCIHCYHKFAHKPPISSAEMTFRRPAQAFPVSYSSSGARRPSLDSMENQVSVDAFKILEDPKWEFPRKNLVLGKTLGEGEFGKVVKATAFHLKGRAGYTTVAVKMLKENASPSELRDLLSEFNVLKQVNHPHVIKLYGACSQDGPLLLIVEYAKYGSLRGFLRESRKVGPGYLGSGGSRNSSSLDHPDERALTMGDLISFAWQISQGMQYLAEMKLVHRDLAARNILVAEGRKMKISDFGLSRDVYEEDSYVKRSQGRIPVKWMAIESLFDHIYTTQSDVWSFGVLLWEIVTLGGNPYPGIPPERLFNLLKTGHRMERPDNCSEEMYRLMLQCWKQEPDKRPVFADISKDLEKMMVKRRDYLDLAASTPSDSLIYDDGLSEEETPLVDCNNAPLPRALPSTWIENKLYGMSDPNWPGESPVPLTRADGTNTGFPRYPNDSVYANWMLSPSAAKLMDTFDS
Sequence of GFRα1-RET (P56159 25-429 partner limits assumed): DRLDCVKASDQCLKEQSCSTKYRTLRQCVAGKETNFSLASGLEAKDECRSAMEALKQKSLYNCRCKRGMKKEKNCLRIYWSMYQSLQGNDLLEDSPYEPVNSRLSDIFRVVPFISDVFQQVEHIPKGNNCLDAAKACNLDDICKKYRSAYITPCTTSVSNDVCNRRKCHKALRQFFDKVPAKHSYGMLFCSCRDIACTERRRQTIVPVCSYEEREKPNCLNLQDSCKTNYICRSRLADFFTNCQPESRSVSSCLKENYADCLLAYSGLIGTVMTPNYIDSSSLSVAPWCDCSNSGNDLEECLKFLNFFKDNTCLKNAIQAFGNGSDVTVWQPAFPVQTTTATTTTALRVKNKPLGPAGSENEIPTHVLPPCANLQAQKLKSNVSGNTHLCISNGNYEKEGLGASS
Sequence of GFRα2-RET (P07949 29-1114): as the sequence (P07949 29-1114) above
Sequence of RET (P07949 29-1114): as above

B1: GDNF: Human recombinant glial cell line-derived neurotrophic factor (protein, UniProt P39905 78-211, looked up)
Glial cell line-derived …: SPDKQMAVLPRRERNRQAAAANPENSRGKGRRGQRGKNRGCVLTAIHLNVTDLGLGYETKEELIFRYCSGSCDAAETTYDKILKNLSRNRRLVSDKVGQACCRPIAFDDDLSFLDDNLVYHILRKHSAKRCGCI
Which results are given for B1?
level of RET phosphorylation (pRET band normalized to RET) [1]: 2.59±0.33; RET activation [2]: did not activate RET; level of AKT phosphorylation (pAKT normalized to GAPDH) [3]: 4.77±0.43; level of ERK phosphorylation (pERK normalized to GAPDH) [4]: 2.76±0.37; number of TH-ir cells [5]: 384.0±35.2; survival promoting effect [6]: did not observe survival promoting effect; number of TH-ir neurons [7]: 333.0±12.6; number of net ipsilateral turns (120 min) [8]: 149.1±47.9; number of TH-ir fibers (neurite number) in the striatum [9]: No statistically significant differences; number of TH-ir cell bodies relative to PBS [10]: 2.5 times; number of TH-ir cell bodies relative to PG [10]: 2.3 times; number of TH-ir cell bodies in the SNpc, Lesioned/Intact side (%) ([10]; 12 weeks post lesion, PBS 11.5±0.9, PG 12.6±0.9): 29.1±2.8 % of the intact side; number of DAT-ir cell bodies relative to PBS [11]: 2.2 times; number of DAT-ir cell bodies in the SNpc ([11]; 12 weeks post lesion, PBS 9.5±1.4, PG 11.6±1.3): 20.7±2.9 % of the intact side; GDNF concentration at which effects on neuronal survival are detected ([12]; ref 52): 1 ng/mL; GDNF concentration at which somewhat increase in survival is already detectable ([12]; ref 52): 0.1 ng/mL; GDNF concentration at which effects on neuronal survival are detected ([12]; ref 81): 5 ng/mL; TH-ir fiber density relative to PBS treated rats [13]: 2.6 times; density of TH-ir fibers in the striatum [13]: 15.8±1.6 % of the intact side; DAT-ir fiber density relative to PBS [14]: 9.9 times; density of DAT-ir fibers in the striatum ([14]; 12 weeks post lesion): 9.9±1.7 % of the intact side

B2: NRTN: human recombinant neurturin (protein, UniProt Q99748 96-197, looked up)
Neurturin: ARLGARPCGLRELEVRVSELGLGYASDETVLFRYCAGACEAAARVYDLGLRRLRQRRRLRRERVRAQPCCRPTAYEDEVSFLDAHSRYHTVHELSARECACV
Which “level of RET phosphorylation (pRET band normalized to RET)” value [15] does the source give for B2 here?
Its value is 3.34±0.41.

What about the “level of AKT phosphorylation (pAKT normalized to GAPDH)” value [16] of the same molecule?
The value was 1.72±0.13.

What about the “level of ERK phosphorylation (pERK normalized to GAPDH)” value [17] of the same molecule?
The value was 1.14±0.15.

B3: BDNF: brain-derived neurotrophic factor (protein, UniProt P23560 19-247, looked up)
Neurotrophic factor BDNF …: APMKEANIRGQGGLAYPGVRTHGTLESVNGPKAGSRGLTSLADTFEHVIEELLDEDQKVRPNEENNKDADLYTSRVMLSSQVPLEPPLLFLLEEYKNYLDAANMSMRVRRHSDPARRGELSVCDSISEWVTAADKKTAVDMSGGTVTVLEKVPVSKGQLKQYFYETKCNPMGYTKEGCRGIDKRHWNSQCRTTQSYVRALTMDSKKRIGWRFIRIDTSCVCTLTIKRGR
For B3, which “luciferase activity in reporter cells expressing TrkB” value [18] is on record?
Its value is “increased the luciferase activity”.
